*1 amine or outer side, *2 acyl side, *3 side chain or, on linkers, in order; H or OH if unused. Where no end group is shown, it is not given here. Side-chain parts run from the residue outwards. [ ]: non-standard residue; d: D form. The star is where a group is joined. γGlu = O=C(O)[C@H](CCC(=O)[*:2])N[*:1]; Palmitoyl = CCCCCCCCCCCCCCCC(=O)*; Decanoyl = CCCCCCCCCC(=O)*; Aib = CC(C)(N)C(=O)O

Test [1] addresses T1, human glucose-dependent insulinotropic polypeptide receptor (human, UniProt P48546 22-466).
T1 sequence (looked up): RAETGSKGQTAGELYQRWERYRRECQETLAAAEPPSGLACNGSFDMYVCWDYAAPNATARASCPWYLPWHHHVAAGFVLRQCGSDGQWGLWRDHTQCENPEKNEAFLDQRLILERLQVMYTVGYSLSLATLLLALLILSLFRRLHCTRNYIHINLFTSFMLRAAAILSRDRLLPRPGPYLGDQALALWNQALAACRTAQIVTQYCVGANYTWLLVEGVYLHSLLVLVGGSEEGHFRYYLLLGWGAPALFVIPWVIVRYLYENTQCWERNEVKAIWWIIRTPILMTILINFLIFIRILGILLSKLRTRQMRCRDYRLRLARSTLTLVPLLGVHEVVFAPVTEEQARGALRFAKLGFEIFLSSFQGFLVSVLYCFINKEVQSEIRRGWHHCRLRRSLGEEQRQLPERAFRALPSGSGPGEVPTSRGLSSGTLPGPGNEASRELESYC
The test can be described thus: cell-based or functional assay.

The target of test [2] is T2, human glucagon-like peptide-2 receptor (human, UniProt O95838 1-553).
T2 sequence (looked up): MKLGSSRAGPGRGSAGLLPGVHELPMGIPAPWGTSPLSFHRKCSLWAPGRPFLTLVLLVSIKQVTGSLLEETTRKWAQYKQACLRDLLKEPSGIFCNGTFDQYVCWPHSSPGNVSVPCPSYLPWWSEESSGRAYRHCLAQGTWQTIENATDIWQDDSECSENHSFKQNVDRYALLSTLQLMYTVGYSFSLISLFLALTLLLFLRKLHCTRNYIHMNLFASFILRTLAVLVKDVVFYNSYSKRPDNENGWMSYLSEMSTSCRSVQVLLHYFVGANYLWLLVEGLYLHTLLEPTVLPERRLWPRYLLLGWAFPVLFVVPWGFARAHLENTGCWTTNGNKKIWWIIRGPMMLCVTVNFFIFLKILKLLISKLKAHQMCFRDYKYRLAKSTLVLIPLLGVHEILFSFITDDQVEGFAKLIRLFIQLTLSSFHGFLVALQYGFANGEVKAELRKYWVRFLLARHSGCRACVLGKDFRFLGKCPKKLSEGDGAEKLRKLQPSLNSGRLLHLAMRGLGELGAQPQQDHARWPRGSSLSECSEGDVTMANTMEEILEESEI
The test can be described thus: cell-based or functional assay.

B1: Compound no. 27 (peptide)
peptide: H[Aib]EGK([γGlu-Palmitoyl])FISDYST[Aib]LDNLAARDFINWLIQTKITK-OH
modifications: N-terminus assumed
SMILES: CCCCCCCCCCCCCCCC(=O)N[C@@H](CCC(=O)NCCCC[C@H](NC(=O)CNC(=O)[C@H](CCC(=O)O)NC(=O)C(C)(C)NC(=O)[C@@H](N)Cc1c[nH]cn1)C(=O)N[C@@H](Cc1ccccc1)C(=O)N[C@H](C(=O)N[C@@H](CO)C(=O)N[C@@H](CC(=O)O)C(=O)N[C@@H](Cc1ccc(O)cc1)C(=O)N[C@@H](CO)C(=O)N[C@H](C(=O)NC(C)(C)C(=O)N[C@@H](CC(C)C)C(=O)N[C@@H](CC(=O)O)C(=O)N[C@@H](CC(N)=O)C(=O)N[C@@H](CC(C)C)C(=O)N[C@@H](C)C(=O)N[C@@H](C)C(=O)N[C@@H](CCCNC(=N)N)C(=O)N[C@@H](CC(=O)O)C(=O)N[C@@H](Cc1ccccc1)C(=O)N[C@H](C(=O)N[C@@H](CC(N)=O)C(=O)N[C@@H](Cc1c[nH]c2ccccc12)C(=O)N[C@@H](CC(C)C)C(=O)N[C@H](C(=O)N[C@@H](CCC(N)=O)C(=O)N[C@H](C(=O)N[C@@H](CCCCN)C(=O)N[C@H](C(=O)N[C@H](C(=O)N[C@@H](CCCCN)C(=O)O)[C@@H](C)O)[C@@H](C)CC)[C@@H](C)O)[C@@H](C)CC)[C@@H](C)CC)[C@@H](C)O)[C@@H](C)CC)C(=O)O
As for B1, the “Efficacy GIPR” value in test [1] was 98%. Moreover, in test [2], the “Efficacy GLP-2R” value came out at 108%.

B2: Compound no. 26 (peptide)
peptide: H[Aib]DGK([γGlu-γGlu-Decanoyl])FISDYSTILDNLAARDFINWLIQTKITK-OH
modifications: N-terminus assumed
SMILES: CCCCCCCCCC(=O)N[C@@H](CCC(=O)N[C@@H](CCC(=O)NCCCC[C@H](NC(=O)CNC(=O)[C@H](CC(=O)O)NC(=O)C(C)(C)NC(=O)[C@@H](N)Cc1c[nH]cn1)C(=O)N[C@@H](Cc1ccccc1)C(=O)N[C@H](C(=O)N[C@@H](CO)C(=O)N[C@@H](CC(=O)O)C(=O)N[C@@H](Cc1ccc(O)cc1)C(=O)N[C@@H](CO)C(=O)N[C@H](C(=O)N[C@H](C(=O)N[C@@H](CC(C)C)C(=O)N[C@@H](CC(=O)O)C(=O)N[C@@H](CC(N)=O)C(=O)N[C@@H](CC(C)C)C(=O)N[C@@H](C)C(=O)N[C@@H](C)C(=O)N[C@@H](CCCNC(=N)N)C(=O)N[C@@H](CC(=O)O)C(=O)N[C@@H](Cc1ccccc1)C(=O)N[C@H](C(=O)N[C@@H](CC(N)=O)C(=O)N[C@@H](Cc1c[nH]c2ccccc12)C(=O)N[C@@H](CC(C)C)C(=O)N[C@H](C(=O)N[C@@H](CCC(N)=O)C(=O)N[C@H](C(=O)N[C@@H](CCCCN)C(=O)N[C@H](C(=O)N[C@H](C(=O)N[C@@H](CCCCN)C(=O)O)[C@@H](C)O)[C@@H](C)CC)[C@@H](C)O)[C@@H](C)CC)[C@@H](C)CC)[C@@H](C)CC)[C@@H](C)O)[C@@H](C)CC)C(=O)O)C(=O)O
Turning to B2, the “Efficacy GIPR” value in test [1] amounted to 80%. In test [2], the “Efficacy GLP-2R” value amounted to 91%.

Source of the values: patent publication US20250304643A1 (BAINAN BIOTECH, published 2025).
